Patent publication EP4420676A1 (Medizinische Hochschule Hannover, dated 2024)

T1: murine DGCR2 expressed on HEK293T cells (mouse, UniProt P98154 25-548)
T1 construct: Transiently expressed on HEK293T cells from a vector with eGFP downstream of a P2A site; also called mouse DGCR2; murine antigen
T1 sequence: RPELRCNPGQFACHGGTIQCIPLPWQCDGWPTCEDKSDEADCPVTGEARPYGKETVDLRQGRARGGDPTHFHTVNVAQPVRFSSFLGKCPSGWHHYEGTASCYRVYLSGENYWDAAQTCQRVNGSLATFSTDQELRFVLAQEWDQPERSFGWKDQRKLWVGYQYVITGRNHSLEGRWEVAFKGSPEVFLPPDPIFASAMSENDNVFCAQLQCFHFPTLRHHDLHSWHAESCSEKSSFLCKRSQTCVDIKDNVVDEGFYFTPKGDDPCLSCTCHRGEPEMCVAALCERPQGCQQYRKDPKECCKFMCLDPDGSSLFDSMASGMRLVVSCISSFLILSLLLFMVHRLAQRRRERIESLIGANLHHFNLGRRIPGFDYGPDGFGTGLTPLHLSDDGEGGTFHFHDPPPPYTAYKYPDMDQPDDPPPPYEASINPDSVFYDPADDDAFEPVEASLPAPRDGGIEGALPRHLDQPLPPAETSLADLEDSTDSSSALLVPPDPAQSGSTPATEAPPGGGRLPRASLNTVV

T2: human DGCR2 expressed on HEK293T cells (human, UniProt P98153 21-550)
T2 construct: Transiently expressed on HEK293T cells from a vector with eGFP downstream of a P2A site; also called human antigen; DiGeorge Syndrom Critical Region 2
T2 sequence: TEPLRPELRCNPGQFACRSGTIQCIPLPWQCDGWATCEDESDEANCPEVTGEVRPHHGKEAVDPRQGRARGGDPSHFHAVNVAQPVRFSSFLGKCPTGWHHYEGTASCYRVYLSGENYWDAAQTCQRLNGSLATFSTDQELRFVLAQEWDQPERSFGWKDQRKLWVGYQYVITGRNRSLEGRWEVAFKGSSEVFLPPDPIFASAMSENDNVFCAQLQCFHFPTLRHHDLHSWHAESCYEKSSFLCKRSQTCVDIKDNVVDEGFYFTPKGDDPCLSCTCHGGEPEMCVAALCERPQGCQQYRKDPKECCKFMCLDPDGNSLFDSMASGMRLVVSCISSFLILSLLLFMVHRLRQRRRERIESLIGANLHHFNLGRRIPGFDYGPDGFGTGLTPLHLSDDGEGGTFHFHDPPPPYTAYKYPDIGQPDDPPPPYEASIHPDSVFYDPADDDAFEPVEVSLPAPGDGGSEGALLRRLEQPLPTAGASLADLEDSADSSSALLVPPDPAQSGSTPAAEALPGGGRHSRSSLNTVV


How the values were obtained:
[1] = biological target: T1, murine DGCR2 expressed on HEK293T cells; assay: flow cytometry, soluble scFv on transfected HEK293T cells (figure legend)
[2] = biological target: T2, human DGCR2 expressed on HEK293T cells; assay: as above
[3] = biological target: T1, murine DGCR2 expressed on HEK293T cells; assay: flow cytometry, soluble scFv on transfected HEK293T cells, anti-His PE

binding result [1] | binding result [2] | binding result [3] | Binder
binds | binds | – | UK018-G3 scFv (scFv, Soluble scFv produced in E. coli) scFv: QVQLVQSGGGVVQPGRSLRLSCAASGFTFSSYGMHWVRQAPGKGLEWVAVISYDGSNKYYADSVKGRFTISRDNSKNTLYLQMNSLRAEDTAVYYCAKDRGAVAGTDWYFDLWGRGTLVTVSSGSASAPKLEEGEFSEARVSSELTQDPAVSVALGQTVRITCQGDSLRSYYASWYQQKPGQAPVLVIYGKNNRPSGIPDRFSGSSSGNTASLTITGAQAEDEADYYCNSRDSSGNHVVFGGGTKLTVLGQPKAAPSVTLFPPSSAAAGSEQKLISEEDLSHHHHHH
binds | binds | – | UK018-G9 scFv (scFv, Soluble scFv produced in E. coli) scFv: QVQLVQSGGGLVQPGGSLRLSCAASGFTFSSYSMSWVRQAPGKGLEWVLGITRGGNTFYADSVTGRFTISRDISKNTVFLQMDSLRVEDTAIYYCAKDWTMSGINVFDTWGQGTLVTVSSGSASAPKLEEGEFSEARVQAVLTQPPSVSGSPGQSVTISCTGTSSDVGAYNRVSWYQQPPGTAPKLMIYEVNNRPSGVPDRFSGSKSGNTASLTISGLQAEDEADYYCSSSTTSSTYVFGTGTKVTVLGQPKANPTVTLFPPSSAAAGSEQKLISEEDLSHHHHHH
– | binds | binds | tpi010-A5 scFv (scFv, Soluble scFv produced in E. coli) scFv: EVQLVESGGGLVQPGGSLRLSCAASGFTVSSNYMSWVRQAPGKGLEWVSVIYSGGSTYYADSVKGRFTISRDNAKNSLYLQMNSLRAEDTAVYYCARGWTTFDYWGQGTLVTVSSGSASAPKLEEGEFSEARVQAVLTQPPSLSVSPRQTVTITCSGDQLGDRYVSWYQQKPGQSPMLVIYQDDRRPSGVPERFSGSNSGNTATLTIGGTQAMDQADYYCQTWDNSPVVFGGGTKLTVLGQPKAAPSVTLFPPSSAAAGSEQKLISEEDLSHHHHHH
